Residue numbers refer to the chain shown, from its start.
B1: antibody 5F7 (antibody, V domains shown)
VH: QVQPQESGPELVKPGALVKISCKASGYTFTRYDINWVKQRPGQGLEWIGWIYPGDISTKYNEKFKGKATLTADKSSSTAYMQLNSLTSENSAVYFCARSDYYGSRSFVYWGQGTLVTVSA
VL: DIVLTQSPASLAVSLGQRATISCRASKSVSTSGYSYMHWYQQKPGQPPKLLIYLASNLESGVPARFSGSGSGTDFTLNIHPVEEEDAATYYCQHSRELPYTFGGGTKVEIK
notes: Murine monoclonal antibody
B2: antibody 1D19 (antibody, V domains shown)
VH: B1 VH with V37M, I56S, Y60F, K63N, G66D, N84S, A92T, V108T
VL: B1 VL with V108L
notes: Murine monoclonal antibody
B3: antibody 2L12 (antibody, V domains shown)
VH: B1 VH with P4L, E6Q, Q39K, I56D, N84S
VL: B1 VL with A12P, M37L, R96G, V108L
notes: Murine monoclonal antibody
B4: antibody 3L3 (antibody, V domains shown)
VH: B1 VH with A16T, R31S, I56G, T58P, N61D, N84S
VL: B1 VL with M37V, S69R, R96G, V108L
notes: Murine monoclonal antibody
B5: antibody 4P5 (antibody, V domains shown)
VH: B1 VH with P4L, E6Q, Q39K, I56D, N84S
VL: B1 VL with V3L, S69R, Q93H, R96G, V108L
notes: Murine monoclonal antibody
B6: antibody 5C23 (antibody, V domains shown)
VH: B1 VH with Q39K, I56G, K65E, N84S
VL: B1 VL with A9D, A12T, V108L
notes: Murine monoclonal antibody
B7: antibody 1C17 (antibody, V domains shown)
VH: QVQLQESGPGLVKPSQSLSLTCSVTGYSITSGYYWNWIRQFPGNKLEWMGYINYDGNSNYTPSLKNRISITRDTSKNQFFLKLNSVTPEDTATYYCARKGAYYSNYDSFDVWGTGTTVTVSS
VL: DIKMTQSPSSMYASLGERVTITCKASQDINSYLSWVQQKPGKSPKTLIYRANRLVDGVPSRFSGSGSGQDYSLTISSLEYEDMGIYYCLQYDEFPFTFGSGTKLEIK
notes: Murine monoclonal antibody
B8: antibody 5H23 (antibody, V domains shown)
VH: B1 VH with P4L, E6Q, R31S, I56G, S77R, N84S, V108A
VL: B1 VL with S35V, Y40N, N57Y, T89I, E97D, P99T, Y100F, T101P, V108L
notes: Murine monoclonal antibody from hybridoma; also called 5H23-Alexa647 (labelled form)
B9: antibody 3N20 (antibody, V domains shown)
VH: QVQLQESGAELARPGASVKLSCKVSGYIFTNYGISWVKQRTGQGLEWIGEIYPRSGNTYYNEKFKGKATLTADMSSSTAYMDLRSLTSEDSAVYFCARHWDGVLDYFDYWGQGTSLTVSS
VL: DIVMTQSPSSLSVSAGEKVTMSCKSSQSLLNSGNQKNYLAWYQQKPGQPPKLLIYGASTRESGVPDRFTGSGSGTDFTLTISSVQAEDLAVYYCLNDHSYPFTFGAGTKLELK
notes: Murine monoclonal antibody

Assays:
[1] = target: T1, cynomolgus monkey beta klotho protein (soluble, used in Biacore) (cynomolgus monkey (Macaca fascicularis), UniProt Q86Z14 53-996 (human entry), limits assumed); test: Biacore SPR, antibody captured on anti-mouse Fc, KLB as analyte (1.56-25 nM), 25 C
T1 construct: Protein in solution; also called Cyno KLB; cyKLB
T1 chain: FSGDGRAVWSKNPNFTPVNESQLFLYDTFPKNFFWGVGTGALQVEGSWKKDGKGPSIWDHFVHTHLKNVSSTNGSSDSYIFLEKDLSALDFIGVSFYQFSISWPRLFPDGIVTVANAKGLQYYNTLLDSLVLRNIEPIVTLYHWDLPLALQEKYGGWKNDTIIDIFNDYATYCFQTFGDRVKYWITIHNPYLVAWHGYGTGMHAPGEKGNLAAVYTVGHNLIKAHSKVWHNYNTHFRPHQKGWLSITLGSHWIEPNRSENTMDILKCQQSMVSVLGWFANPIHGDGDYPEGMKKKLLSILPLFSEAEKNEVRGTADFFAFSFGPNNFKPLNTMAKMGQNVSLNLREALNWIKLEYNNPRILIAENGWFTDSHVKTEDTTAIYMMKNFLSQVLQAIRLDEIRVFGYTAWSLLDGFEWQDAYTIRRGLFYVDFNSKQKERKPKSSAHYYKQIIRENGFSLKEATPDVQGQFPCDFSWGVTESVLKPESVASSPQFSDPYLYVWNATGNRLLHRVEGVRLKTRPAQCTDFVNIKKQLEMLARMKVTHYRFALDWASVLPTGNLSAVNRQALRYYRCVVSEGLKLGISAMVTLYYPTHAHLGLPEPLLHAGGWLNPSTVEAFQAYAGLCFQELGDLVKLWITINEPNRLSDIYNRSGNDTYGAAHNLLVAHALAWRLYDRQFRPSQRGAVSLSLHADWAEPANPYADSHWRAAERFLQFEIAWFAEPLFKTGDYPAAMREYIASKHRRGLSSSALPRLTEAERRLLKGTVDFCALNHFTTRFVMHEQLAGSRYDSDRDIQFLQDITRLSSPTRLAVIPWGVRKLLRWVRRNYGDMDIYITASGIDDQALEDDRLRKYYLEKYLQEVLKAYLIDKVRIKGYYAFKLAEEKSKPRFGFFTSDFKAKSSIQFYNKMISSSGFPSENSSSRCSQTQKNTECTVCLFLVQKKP
Method: (§1) Binding affinity measurements were also made in additional Biacore based assays. For example, equilibrium dissociation constant (KD) measurements were carried out with purified antibodies to evaluate their binding to human beta klotho and cyno beta klotho. As mentioned above, anti-mouse Fc antibody (Sigma-Aldrich, St. Louis, Mo.) was immobilized on all four flow cells of a CM5 chip using amine coupling reagents (GE Healthcare LifeSciences, Piscataway, N.J.). Purified antibodies were captured (˜100 RUs) on flow cells 2, 3 and 4 using flow cell 1 as a reference. This was followed by injection of different concentrations of human or cyno beta klotho (1.56 nM to 25 nM, two-fold dilutions in PBS-P buffer) at a flow rate of 70 μL/min and the binding kinetics were evaluated at 25° C.

[2] = target: T2, human beta klotho protein (soluble, used in Biacore) (human, UniProt Q86Z14 53-997, limits assumed); test: as above
T2 construct: also called HuKLB; huKLB
T2 sequence: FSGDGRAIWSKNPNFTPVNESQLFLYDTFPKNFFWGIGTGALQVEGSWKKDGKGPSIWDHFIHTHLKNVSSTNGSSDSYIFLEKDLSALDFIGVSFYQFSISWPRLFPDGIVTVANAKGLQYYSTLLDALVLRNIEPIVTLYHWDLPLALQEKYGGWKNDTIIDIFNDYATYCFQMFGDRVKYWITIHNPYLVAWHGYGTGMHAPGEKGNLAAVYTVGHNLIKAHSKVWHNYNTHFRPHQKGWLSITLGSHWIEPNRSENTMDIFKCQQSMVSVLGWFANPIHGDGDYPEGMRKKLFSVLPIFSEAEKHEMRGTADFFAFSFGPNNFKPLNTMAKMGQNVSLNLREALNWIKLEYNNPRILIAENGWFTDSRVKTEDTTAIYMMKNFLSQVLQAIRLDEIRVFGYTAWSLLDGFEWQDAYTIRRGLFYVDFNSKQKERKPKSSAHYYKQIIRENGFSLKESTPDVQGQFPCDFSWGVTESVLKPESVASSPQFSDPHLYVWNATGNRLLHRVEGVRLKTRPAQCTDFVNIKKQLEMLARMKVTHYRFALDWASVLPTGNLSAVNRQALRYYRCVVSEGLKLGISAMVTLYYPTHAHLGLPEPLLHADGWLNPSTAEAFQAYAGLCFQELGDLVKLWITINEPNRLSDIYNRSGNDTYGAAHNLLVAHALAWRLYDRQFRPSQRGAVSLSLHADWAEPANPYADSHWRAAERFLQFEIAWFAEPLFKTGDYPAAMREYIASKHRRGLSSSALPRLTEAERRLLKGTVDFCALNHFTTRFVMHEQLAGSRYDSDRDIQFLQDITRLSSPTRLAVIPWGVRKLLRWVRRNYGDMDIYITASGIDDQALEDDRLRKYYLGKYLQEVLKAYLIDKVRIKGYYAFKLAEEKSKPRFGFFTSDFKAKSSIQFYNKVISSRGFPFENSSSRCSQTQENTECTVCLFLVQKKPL
Method: as §1

Binder | Kd [1] [nM] | Kd [2] [nM]
B1 | 2.5 | 1.7
B2 | 2.9 | 1.25
B3 | 1.42 | 0.22
B4 | 2.2 | 1.14
B5 | 0.44 | 0.26
B6 | 2.4 | 1.2
B7 | 3.1 | 0.89
B8 | 0.72 | 
B9 | 3.52 | 3.3
